This note sets out measurements from the MegaScale stability set (Tsuboyama et al. 2023).

To fix the notation:
B1: 2K2A (parent)
chain: ELREAFRLYDKEGNGYISTDVMREILAELDETLSSEDLDAMIDEIDADGSGTVDFEEFMGVMT

In this data set the parent is B1. Kind of data set: folding stability dG (cDNA display proteolysis); higher = more stable. The settings on record: PBS, room temperature.
For ELREAFRLYDKEGNGYISTDYMREILAELDETLSSEDLDAMIDEIDADGSGTVDFEEFMGVMT, the “folding stability dG” value turned out to be 1.61 kcal/mol.

Regarding ELREAFRLYDKEGNGYISTDRMREILAELDETLSSEDLDAMIDEIDADGSGTVDFEEFMGVMT, the “folding stability dG” value was 1.88 kcal/mol.

In the case of ELREAFRLYDKEGNGYISTDWMREILAELDETLSSEDLDAMIDEIDADGSGTVDFEEFMGVMT, the “folding stability dG” value worked out at 1.09 kcal/mol.

As for ELREAFRLYDKEGNGYISTDTMREILAELDETLSSEDLDAMIDEIDADGSGTVDFEEFMGVMT, the “folding stability dG” value came out at 1.92 kcal/mol.

On to ELREAFRLYDKEGNGYISTDSMREILAELDETLSSEDLDAMIDEIDADGSGTVDFEEFMGVMT, for which the “folding stability dG” value came out at 1.94 kcal/mol.

As to ELREAFRLYDKEGNGYISTDVMRDILAELDETLSSEDLDAMIDEIDADGSGTVDFEEFMGVMT, the “folding stability dG” value amounted to 1.77 kcal/mol.

Turning to ELREAFRLYDKEGNGYISTDVMRLILAELDETLSSEDLDAMIDEIDADGSGTVDFEEFMGVMT, the “folding stability dG” value amounted to 2.55 kcal/mol.

ELREAFRLYDKEGNGYISTDVMRPILAELDETLSSEDLDAMIDEIDADGSGTVDFEEFMGVMT: the “folding stability dG” value was -0.167 kcal/mol.

ELREAFRLYDKEGNGYISTDVMRNILAELDETLSSEDLDAMIDEIDADGSGTVDFEEFMGVMT: the “folding stability dG” value came out at 2.19 kcal/mol.

Take ELREAFRLYDKEGNGYISTDVMRMILAELDETLSSEDLDAMIDEIDADGSGTVDFEEFMGVMT: the “folding stability dG” value was 2.52 kcal/mol.

As to ELREAFRLYDKEGNGYISTDVMRGILAELDETLSSEDLDAMIDEIDADGSGTVDFEEFMGVMT, the “folding stability dG” value is 2.08 kcal/mol.

As to ELREAFRLYDKEGNGYISTDVMRKILAELDETLSSEDLDAMIDEIDADGSGTVDFEEFMGVMT, the “folding stability dG” value was found to be 2.6 kcal/mol.

On to ELREAFRLYDKEGNGYISTDVMRCILAELDETLSSEDLDAMIDEIDADGSGTVDFEEFMGVMT, for which the “folding stability dG” value was 2.6 kcal/mol.

Take ELREAFRLYDKEGNGYISTDVMRFILAELDETLSSEDLDAMIDEIDADGSGTVDFEEFMGVMT: the “folding stability dG” value was 2.32 kcal/mol.

ELREAFRLYDKEGNGYISTDVMRAILAELDETLSSEDLDAMIDEIDADGSGTVDFEEFMGVMT: the “folding stability dG” value came to 2.35 kcal/mol.

ELREAFRLYDKEGNGYISTDVMRIILAELDETLSSEDLDAMIDEIDADGSGTVDFEEFMGVMT: the “folding stability dG” value is 2.29 kcal/mol.

With ELREAFRLYDKEGNGYISTDVMRHILAELDETLSSEDLDAMIDEIDADGSGTVDFEEFMGVMT, the “folding stability dG” value is 2.14 kcal/mol.

As for ELREAFRLYDKEGNGYISTDVCREILAELDETLSSEDLDAMIDEIDADGSGTVDFEEFMGVMT, the “folding stability dG” value stood at 0.958 kcal/mol.

Regarding ELREAFRLYDKEGNGYISTDVIREILAELDETLSSEDLDAMIDEIDADGSGTVDFEEFMGVMT, the “folding stability dG” value came out at 1.46 kcal/mol.

Consider ELREAFRLYDKEGNGYISTDVFREILAELDETLSSEDLDAMIDEIDADGSGTVDFEEFMGVMT, for which the “folding stability dG” value came to 1.65 kcal/mol.

ELREAFRLYDKEGNGYISTDVHREILAELDETLSSEDLDAMIDEIDADGSGTVDFEEFMGVMT: the “folding stability dG” value is -0.985 kcal/mol.

In the case of ELREAFRLYDKEGNGYISTDVWREILAELDETLSSEDLDAMIDEIDADGSGTVDFEEFMGVMT, the “folding stability dG” value is 0.847 kcal/mol.

For the variant ELREAFRLYDKEGNGYISTDVLREILAELDETLSSEDLDAMIDEIDADGSGTVDFEEFMGVMT, the “folding stability dG” value was found to be 1.97 kcal/mol.

As to ELREAFRLYDKEGNGYISTDVDREILAELDETLSSEDLDAMIDEIDADGSGTVDFEEFMGVMT, the “folding stability dG” value is -0.77 kcal/mol.

On to ELREAFRLYDKEGNGYISTDVAREILAELDETLSSEDLDAMIDEIDADGSGTVDFEEFMGVMT, for which the “folding stability dG” value was 0.924 kcal/mol.

Turning to ELREAFRLYDKEGNGYISTDVYREILAELDETLSSEDLDAMIDEIDADGSGTVDFEEFMGVMT, the “folding stability dG” value worked out at 0.295 kcal/mol.

Take ELREAFRLYDKEGNGYISTDVVREILAELDETLSSEDLDAMIDEIDADGSGTVDFEEFMGVMT: the “folding stability dG” value turned out to be 1.4 kcal/mol.

Turning to ELREAFRLYDKEGNGYISTDVTREILAELDETLSSEDLDAMIDEIDADGSGTVDFEEFMGVMT, the “folding stability dG” value amounted to 0.155 kcal/mol.

For the variant ELREAFRLYDKEGNGYISTDVMVEILAELDETLSSEDLDAMIDEIDADGSGTVDFEEFMGVMT, the “folding stability dG” value was -0.067 kcal/mol.

As for ELREAFRLYDKEGNGYISTDVMAEILAELDETLSSEDLDAMIDEIDADGSGTVDFEEFMGVMT, the “folding stability dG” value was determined as 0.182 kcal/mol.

On to ELREAFRLYDKEGNGYISTDVMWEILAELDETLSSEDLDAMIDEIDADGSGTVDFEEFMGVMT, for which the “folding stability dG” value is 0.731 kcal/mol.

Take ELREAFRLYDKEGNGYISTDVMMEILAELDETLSSEDLDAMIDEIDADGSGTVDFEEFMGVMT: the “folding stability dG” value came to 0.457 kcal/mol.

Take ELREAFRLYDKEGNGYISTDVMSEILAELDETLSSEDLDAMIDEIDADGSGTVDFEEFMGVMT: the “folding stability dG” value is -0.561 kcal/mol.

ELREAFRLYDKEGNGYISTDVMHEILAELDETLSSEDLDAMIDEIDADGSGTVDFEEFMGVMT: the “folding stability dG” value is -0.034 kcal/mol.

Consider ELREAFRLYDKEGNGYISTDVMKEILAELDETLSSEDLDAMIDEIDADGSGTVDFEEFMGVMT, for which the “folding stability dG” value stood at 1.69 kcal/mol.

As for ELREAFRLYDKEGNGYISTDVMIEILAELDETLSSEDLDAMIDEIDADGSGTVDFEEFMGVMT, the “folding stability dG” value turned out to be 0.365 kcal/mol.

With ELREAFRLYDKEGNGYISTDVMFEILAELDETLSSEDLDAMIDEIDADGSGTVDFEEFMGVMT, the “folding stability dG” value was found to be 0.124 kcal/mol.

Take ELREAFRLYDKEGNGYISTDVMLEILAELDETLSSEDLDAMIDEIDADGSGTVDFEEFMGVMT: the “folding stability dG” value was 0.522 kcal/mol.

As for ELREAFRLYDKEGNGYISTDVMGEILAELDETLSSEDLDAMIDEIDADGSGTVDFEEFMGVMT, the “folding stability dG” value was -0.378 kcal/mol.

On to ELREAFRLYDKEGNGYISTDVMYEILAELDETLSSEDLDAMIDEIDADGSGTVDFEEFMGVMT, for which the “folding stability dG” value was determined as 0.595 kcal/mol.

As to ELREAFRLYDKEGNGYISTDVMCEILAELDETLSSEDLDAMIDEIDADGSGTVDFEEFMGVMT, the “folding stability dG” value was 0.094 kcal/mol.

As for ELREAFRLYDKEGNGYISTDVMTEILAELDETLSSEDLDAMIDEIDADGSGTVDFEEFMGVMT, the “folding stability dG” value is -0.478 kcal/mol.

Regarding ELREAFRLYDKEGNGYISTDVMQEILAELDETLSSEDLDAMIDEIDADGSGTVDFEEFMGVMT, the “folding stability dG” value was -0.482 kcal/mol.
